From the supplement of paper PMC9112550, “Optimization of the antimicrobial peptide Bac7 by deep mutational scanning” (BMC Biology, 2022)

Tested on: Escherichia coli TOP10
Assay: shrunken log2 fold change of peptide-encoding DNA abundance (4.5 h post-induction vs induction); higher = less antimicrobial activity (less host growth inhibition)
Details: time post-induction: 4.5 h; library: site-saturation at positions 5, 18, 19, 20
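Also: peptides expressed intracellularly from a pBAD plasmid library in pooled LB shake-flask culture, induced with 0.3% L-arabinose, DNA abundance read by NGS, three biological replicates, DESeq2 with apeglm shrinkage.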

Row | Sequence | shrunken log2 fold change
1 | RRIRPRPPRLPRPRPRPYWAPRP | -0.365
2 | RRIRFRPPRLPRPRPRPCGTPRP | -0.207
3 | RRIRPRPPRLPRPRPRPVEMPRP | 0.0666
4 | RRIRRRPPRLPRPRPRPNTYPRP | -0.336
5 | RRIRRRPPRLPRPRPRPHHGPRP | -0.249
6 | RRIRIRPPRLPRPRPRPMGRPRP | 0.126
7 | RRIRQRPPRLPRPRPRPRLEPRP | 0.109
8 | RRIRFRPPRLPRPRPRPPKRPRP | 0.467
9 | RRIRLRPPRLPRPRPRPGDPPRP | 0.251
10 | RRIRYRPPRLPRPRPRPCVNPRP | -0.177
11 | RRIRARPPRLPRPRPRPFHFPRP | -0.25
12 | RRIRERPPRLPRPRPRPMCEPRP | 0.0303
13 | RRIRWRPPRLPRPRPRPEPKPRP | 0.393
14 | RRIRNRPPRLPRPRPRPQTLPRP | -0.513
15 | RRIRHRPPRLPRPRPRPDYSPRP | -0.657
16 | RRIRHRPPRLPRPRPRPSGWPRP | -0.291
17 | RRIRYRPPRLPRPRPRPILCPRP | -0.0389
18 | RRIRPRPPRLPRPRPRPVSRPRP | 0.0925
19 | RRIRTRPPRLPRPRPRPTLCPRP | 0.148
20 | RRIRTRPPRLPRPRPRPKMGPRP | -0.0141
21 | RRIRTRPPRLPRPRPRPCASPRP | 0.184
22 | RRIRDRPPRLPRPRPRPSDPPRP | -0.0499
23 | RRIRPRPPRLPRPRPRPPWTPRP | 0.267
24 | RRIRTRPPRLPRPRPRPHMSPRP | 0.0303
25 | RRIRERPPRLPRPRPRPFWHPRP | -0.0333

Row | Sequence | shrunken log2 fold change
26 | RRIRLRPPRLPRPRPRPFNCPRP | 0.0515
27 | RRIRARPPRLPRPRPRPTIFPRP | 0.377
28 | RRIRRRPPRLPRPRPRPGKPPRP | 0.293
29 | RRIRSRPPRLPRPRPRPMRQPRP | 0.728
30 | RRIRRRPPRLPRPRPRPNQIPRP | -0.349
31 | RRIRIRPPRLPRPRPRPARPPRP | 0.474
32 | RRIRVRPPRLPRPRPRPMQPPRP | -0.0152
33 | RRIRYRPPRLPRPRPRPTAGPRP | 0.111
34 | RRIRTRPPRLPRPRPRPLQNPRP | 0.163
35 | RRIRTRPPRLPRPRPRPTTYPRP | -0.441
36 | RRIRCRPPRLPRPRPRPERSPRP | 0.0846
37 | RRIRDRPPRLPRPRPRPTHNPRP | -0.00516
38 | RRIRRRPPRLPRPRPRPQWMPRP | 0.139
39 | RRIRERPPRLPRPRPRPKRKPRP | 0.25
40 | RRIRSRPPRLPRPRPRPMRWPRP | 0.664
41 | RRIRGRPPRLPRPRPRPYCFPRP | 0.0329
42 | RRIRVRPPRLPRPRPRPMWGPRP | -0.174
43 | RRIRIRPPRLPRPRPRPEFWPRP | -0.0113
44 | RRIRTRPPRLPRPRPRPEGYPRP | -0.104
45 | RRIRWRPPRLPRPRPRPVDWPRP | 2.21
46 | RRIRWRPPRLPRPRPRPADAPRP | 0.739
47 | RRIRDRPPRLPRPRPRPCVNPRP | 0.0261
48 | RRIRKRPPRLPRPRPRPDPKPRP | 0.549
49 | RRIRMRPPRLPRPRPRPRWAPRP | 1.3
50 | RRIRFRPPRLPRPRPRPVFGPRP | -0.17
